Measurements published in PMC9458440, “Cryo-EM structure of the Smc5/6 holo-complex” (Nucleic Acids Research, 2022).

Legend:
Experiment in all cases: cryo-EM structure; BS3-crosslinked six-subunit holo-complex, apo / non-liganded; fractions from Superose 6 diluted to 20 mM HEPES.NaOH pH 7.5, 50 mM NaCl, 0.5 mM TCEP, 0.1 mg/ml; maps at 10.8 Å (holo-complex), 8.53 Å (hinge/arm) and 6.5 Å (head-only); pseudo-atomic model built from homology and AlphaFold models
Details in all cases: both partners purified
[1] = molecular target: T1, Smc5 (Walker B mutant E1015Q), subunit of the S. cerevisiae Smc5/6 holo-complex (S. cerevisiae, UniProt Q08204 1-1093, E1015Q)
T1 construct: Smc5, Saccharomyces cerevisiae; the model holds amino acids 35-390, 394-882, 884-1068; The complex was crosslinked with BS3; also called κ-SMC; source: recombinant, expressed in insect cells, purified as holo-complex (Superose 6 SEC), BS3-crosslinked
T1 sequence: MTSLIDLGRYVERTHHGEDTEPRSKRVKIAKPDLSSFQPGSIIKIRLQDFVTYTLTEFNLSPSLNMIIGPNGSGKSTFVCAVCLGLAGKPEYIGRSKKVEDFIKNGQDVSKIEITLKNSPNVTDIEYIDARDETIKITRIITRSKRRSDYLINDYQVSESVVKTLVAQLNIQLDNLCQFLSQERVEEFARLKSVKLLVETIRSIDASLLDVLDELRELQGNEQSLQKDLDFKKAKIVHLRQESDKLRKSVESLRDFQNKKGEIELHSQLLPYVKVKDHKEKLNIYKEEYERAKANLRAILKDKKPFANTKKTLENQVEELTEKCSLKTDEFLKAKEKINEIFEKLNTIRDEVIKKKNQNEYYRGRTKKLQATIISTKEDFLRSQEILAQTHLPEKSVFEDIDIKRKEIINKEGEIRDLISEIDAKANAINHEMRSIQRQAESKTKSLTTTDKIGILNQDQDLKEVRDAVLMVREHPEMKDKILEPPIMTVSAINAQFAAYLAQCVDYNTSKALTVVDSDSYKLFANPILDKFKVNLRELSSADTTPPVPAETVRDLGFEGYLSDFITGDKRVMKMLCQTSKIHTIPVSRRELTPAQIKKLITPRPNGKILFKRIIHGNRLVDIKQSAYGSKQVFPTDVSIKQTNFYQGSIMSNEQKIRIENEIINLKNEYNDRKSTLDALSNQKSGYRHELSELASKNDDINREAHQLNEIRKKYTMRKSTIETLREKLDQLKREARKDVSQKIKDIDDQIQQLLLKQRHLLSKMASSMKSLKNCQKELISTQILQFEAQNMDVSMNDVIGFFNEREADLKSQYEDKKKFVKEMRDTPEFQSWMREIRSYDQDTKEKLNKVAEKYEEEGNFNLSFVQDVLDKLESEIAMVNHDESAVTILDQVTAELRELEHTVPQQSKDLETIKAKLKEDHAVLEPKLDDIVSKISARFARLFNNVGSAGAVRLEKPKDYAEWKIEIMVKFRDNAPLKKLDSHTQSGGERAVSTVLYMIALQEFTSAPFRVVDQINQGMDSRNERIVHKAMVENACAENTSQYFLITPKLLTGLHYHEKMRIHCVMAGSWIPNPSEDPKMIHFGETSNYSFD

[2] = molecular target: T2, Nse1, subunit of the S. cerevisiae Smc5/6 holo-complex (S. cerevisiae, UniProt Q07913 1-336)
T2 construct: Nse1, Saccharomyces cerevisiae; the model holds amino acids 11-336; also called KITE subunit; source: recombinant, expressed in insect cells, purified as holo-complex (Superose 6 SEC), BS3-crosslinked
T2 sequence: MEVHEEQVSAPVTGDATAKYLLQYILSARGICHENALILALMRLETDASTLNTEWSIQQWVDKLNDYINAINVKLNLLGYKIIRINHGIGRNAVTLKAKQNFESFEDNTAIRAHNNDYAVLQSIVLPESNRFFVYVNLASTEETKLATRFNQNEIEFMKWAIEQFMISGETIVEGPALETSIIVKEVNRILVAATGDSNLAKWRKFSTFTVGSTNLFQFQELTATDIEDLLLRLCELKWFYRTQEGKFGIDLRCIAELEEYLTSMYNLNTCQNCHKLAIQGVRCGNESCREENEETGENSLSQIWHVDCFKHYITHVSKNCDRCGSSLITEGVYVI

[3] = molecular target: T3, Nse4 with HaloTag, kleisin subunit of the S. cerevisiae Smc5/6 holo-complex (S. cerevisiae, UniProt P43124 1-402)
T3 construct: Nse4, Saccharomyces cerevisiae; the model holds amino acids 40-124, 184-202, 213-245, 283-402; Density of the HaloTag attached to Nse4 was removed by particle subtraction, so the tag was on the protein on the grid; its end is told only for the yeast strain (C-terminal), not for the recombinant protein; source: recombinant, expressed in insect cells, purified as holo-complex (Superose 6 SEC), …
T3 sequence: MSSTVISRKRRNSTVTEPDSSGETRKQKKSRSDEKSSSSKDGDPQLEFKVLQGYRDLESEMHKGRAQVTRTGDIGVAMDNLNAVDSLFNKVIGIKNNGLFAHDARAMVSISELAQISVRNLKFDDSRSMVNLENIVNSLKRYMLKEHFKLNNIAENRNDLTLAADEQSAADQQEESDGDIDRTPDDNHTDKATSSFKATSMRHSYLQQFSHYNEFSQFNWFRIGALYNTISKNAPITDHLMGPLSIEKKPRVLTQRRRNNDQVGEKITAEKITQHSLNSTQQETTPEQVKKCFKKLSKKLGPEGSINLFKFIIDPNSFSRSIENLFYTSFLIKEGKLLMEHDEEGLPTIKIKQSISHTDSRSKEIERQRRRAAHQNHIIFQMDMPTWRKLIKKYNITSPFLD

binding result [1]: binds | binding result [2]: binds | binding result [3]: binds
B1: Nse3, subunit of the S. cerevisiae Smc5/6 holo-complex (natural protein)
chain: MSSIDNDSDVDLTEDLAVAKIVKENPVARKMVRYILSRGESQNSIITRNKLQSVIHEAAREENIAKPSFSKMFMDINAILYNVYGFELQGLPSKNNMNAGGNGSNSNTNKSMPEPLGHRAQKFILLNNVPHSKNFDDFKILQSAHTYEELIVTGEYIGDDIASGTSNTLESKLSTDRDLVYKGVLSVILCIVFFSKNNILHQELIKFLETFGIPSDGSKIAILNITIEDLIKSLEKREYIVRLEEKSDTDGEVISYRIGRRTQAELGLESLEKLVQEIMGLEKEQTKSLHDDIIKSIGDSYSI
notes: Nse3, Saccharomyces cerevisiae; the model holds amino acids 9-99, 114-152, 173-303; also called KITE subunit; source: recombinant, expressed in insect cells, purified as holo-complex (Superose 6 SEC), BS3-crosslinked
